Data from patent US10239925B2, “Peptides and combination of peptides for use in immunotherapy against ovarian cancer and other cancers” (IMMATICS BIOTECHNOLOGIES GMBH, priority 2015, dated 2019).

target: HLA-A*02:01 (Homo sapiens, UniProt P04439, D140Y/D185E/D98H/E176V/E277Q/G131W/G231S/I119V/I121R/I166T/I218V/L300P/L318F/N151K/N90K/P208A/P217A/Q86G/Q94H/R138H/R169H/T345S); assay: MHC binding assay (UV-ligand exchange, anti-β2m ELISA, peptide exchange yield); conditions: binding to HLA-A*02:01
Method in brief: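 Peptide-MHC complexes formed by UV-ligand exchange, cleaving a UV-sensitive placeholder peptide in favour of the test peptide. Exchange yield measured by ELISA: monomers diluted 100-fold onto streptavidin-coated plates, 1 h 37 °C, detected with 2 ug/ml HRP anti-β2m and TMB, absorbance at 450 nm.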

Row | Substance | Peptide exchange (MHC class I binding score, peptide exchange yield)
1 | 449 (KLAEGLDIQL; listed as Homo sapiens) [compound 449] | “+++” (>50 = +++)
2 | 134 (YLQELIFSV; listed as Homo sapiens) [compound 134] | “+++” (>50 = +++)
3 | 407 (YLMDLINFL; listed as Homo sapiens) [compound 407] | “+++” (>50 = +++)
4 | 221 (ALYEEGLLL; listed as Homo sapiens) [compound 221] | “++” (>20% = ++)
5 | 440 (ALADGVTMQV; listed as Homo sapiens) [compound 440] | “++” (>20% = ++)
6 | 188 (GLFPVTPEAV; listed as Homo sapiens) [compound 188] | “+++” (>50 = +++)
7 | 438 (KLLPLAGLYL; listed as Homo sapiens) [compound 438] | “++++” (>75% = ++++)
8 | 484 (SLIEKVTQL; listed as Homo sapiens) [compound 484] | “+++” (>50 = +++)
9 | 400 (SLLTEQDLWTV; listed as Homo sapiens) [compound 400] | “++” (>20% = ++)
10 | 34 (ILVEADSLWVV; listed as Homo sapiens) [compound 34] | “+++” (>50 = +++)
11 | 204 (KIAENVEEV; listed as Homo sapiens) [compound 204] | “++” (>20% = ++)
12 | 217 (ALIHPVSTV; listed as Homo sapiens) [compound 217] | “++” (>20% = ++)
13 | 361 (ALYELEGTTV; listed as Homo sapiens) [compound 361] | “+++” (>50 = +++)
14 | 480 (ALLEDSCHYL; listed as Homo sapiens) [compound 480] | “+++” (>50 = +++)
15 | 513 (SLWPSPEQL; listed as Homo sapiens) [compound 513] | “++” (>20% = ++)
16 | 343 (SLLEVNEESTV; listed as Homo sapiens) [compound 343] | “+++” (>50 = +++)
17 | 562 (YLEELPEKLKL; listed as Homo sapiens) [compound 562] | “+++” (>50 = +++)
18 | 35 (KINDTIYEV; listed as Homo sapiens) [compound 35] | “+++” (>50 = +++)
19 | 91 (IMQDFPAEIFL; listed as Homo sapiens) [compound 91] | “++++” (>75% = ++++)
20 | 557 (KLYDDMIRL; listed as Homo sapiens) [compound 557] | “+++” (>50 = +++)
21 | 239 (AAFAGKLLSV; listed as Homo sapiens) [compound 239] | “+++” (>50 = +++)
22 | 409 (LLDAMNYHL; listed as Homo sapiens) [compound 409] | “++” (>20% = ++)
23 | 494 (ALQPEPIKV; listed as Homo sapiens) [compound 494] | “++” (>20% = ++)
24 | 282 (LLADVVPTT; listed as Homo sapiens) [compound 282] | “+++” (>50 = +++)
25 | 273 (NLFQSVREV; listed as Homo sapiens) [compound 273] | “++” (>20% = ++)
26 | 576 (ILLNNSGQIKL; listed as Homo sapiens) [compound 576] | “++++” (>75% = ++++)
27 | 95 (SVIPQIQKV; listed as Homo sapiens) [compound 95] | “+++” (>50 = +++)
28 | 84 (VTFGEKLLGV; listed as Homo sapiens) [compound 84] | “++” (>20% = ++)
29 | 587 (VMNDRLYAI; listed as Homo sapiens) [compound 587] | “+++” (>50 = +++)

Continued, values first:

Row | Peptide exchange (MHC class I binding score, peptide exchange yield) | Substance
30 | “+++” (>50 = +++) | 464 (ALNDCIYSV; listed as Homo sapiens) [compound 464]
31 | “+++” (>50 = +++) | 430 (HLYSSIEHLTT; listed as Homo sapiens) [compound 430]
32 | “++++” (>75% = ++++) | 611 (YLLDDGTLVV; listed as Homo sapiens) [compound 611]
33 | “+++” (>50 = +++) | 300 (ALLGQTFSL; listed as Homo sapiens) [compound 300]
34 | “+++” (>50 = +++) | 506 (KLLGKVETA; listed as Homo sapiens) [compound 506]
35 | “++” (>20% = ++) | 382 (ALQNYIKEA; listed as Homo sapiens) [compound 382]
36 | “+++” (>50 = +++) | 541 (SMLEPVPEL; listed as Homo sapiens) [compound 541]
37 | “+++” (>50 = +++) | 531 (YTLPIASSIRL; listed as Homo sapiens) [compound 531]
38 | “++++” (>75% = ++++) | 177 (YLLPEEYTSTL; listed as Homo sapiens) [compound 177]
39 | “+++” (>50 = +++) | 240 (ILLEQAFYL; listed as Homo sapiens) [compound 240]
40 | “++” (>20% = ++) | 458 (SLIDKLYNI; listed as Homo sapiens) [compound 458]
41 | “+++” (>50 = +++) | 497 (GLLEKLTAI; listed as Homo sapiens) [compound 497]
42 | “+++” (>50 = +++) | 147 (SLLEAVSFL; listed as Homo sapiens) [compound 147]
43 | “+++” (>50 = +++) | 599 (YLLNDASLISV; listed as Homo sapiens) [compound 599]
44 | “+++” (>50 = +++) | 201 (RLVDYLEGI; listed as Homo sapiens) [compound 201]
45 | “+++” (>50 = +++) | 563 (WLLPYNGVTV; listed as Homo sapiens) [compound 563]
46 | “++++” (>75% = ++++) | 371 (FLQAHLHTA; listed as Homo sapiens) [compound 371]
47 | “+++” (>50 = +++) | 613 (RLLPPGAVVAV; listed as Homo sapiens) [compound 613]
48 | “+++” (>50 = +++) | 286 (YLFPGIPEL; listed as Homo sapiens) [compound 286]

Row | Peptide exchange (MHC class I binding score, peptide exchange yield) | Substance
49 | “+++” (>50 = +++) | 96 (YIFTDNPAAV; listed as Homo sapiens) [compound 96]
50 | “++” (>20% = ++) | 220 (LLQKFVPEI; listed as Homo sapiens) [compound 220]
51 | “+++” (>50 = +++) | 553 (SLLNQDLHWSL; listed as Homo sapiens) [compound 553]
52 | “+++” (>50 = +++) | 528 (SVAEGRALMSV; listed as Homo sapiens) [compound 528]
53 | “++” (>20% = ++) | 212 (ALWDQDNLSV; listed as Homo sapiens) [compound 212]
54 | “+++” (>50 = +++) | 16 (VLFQGQASL; listed as Homo sapiens) [compound 16]
55 | “+++” (>50 = +++) | 478 (YLLHEKLNL; listed as Homo sapiens) [compound 478]
56 | “+++” (>50 = +++) | 224 (TLIDAQWVL; listed as Homo sapiens) [compound 224]
57 | “+++” (>50 = +++) | 622 (RLLGEEVVRVLQA; listed as Homo sapiens) [compound 622]
58 | “++” (>20% = ++) | 579 (NLMEMVAQL; listed as Homo sapiens) [compound 579]
59 | “+++” (>50 = +++) | 189 (ALQRKLPYV; listed as Homo sapiens) [compound 189]
60 | “+++” (>50 = +++) | 575 (YLISQVEGHQV; listed as Homo sapiens) [compound 575]
61 | “+++” (>50 = +++) | 12 (SLWPDPMEV; listed as Homo sapiens) [compound 12]
62 | “++” (>20% = ++) | 363 (KVLDVSDLESV; listed as Homo sapiens) [compound 363]
63 | “+++” (>50 = +++) | 597 (KLLEGQVIQL; listed as Homo sapiens) [compound 597]
64 | “+++” (>50 = +++) | 238 (YLISFQTHI; listed as Homo sapiens) [compound 238]
65 | “++” (>20% = ++) | 389 (LLADVTHLL; listed as Homo sapiens) [compound 389]
66 | “+++” (>50 = +++) | 149 (NLLELFVQL; listed as Homo sapiens) [compound 149]
67 | “+++” (>50 = +++) | 195 (GLFADLLPRL; listed as Homo sapiens) [compound 195]
